Measured values taken from paper PMC6627055, “Enantioselective Hydrolysis of Styrene Oxide and Benzyl Glycidyl Ether by a Variant of Epoxide Hydrolase from Agromyces mediolanus” (Marine Drugs, 2019).

What was measured:
Test in all cases: initial rate of epoxide hydrolysis, chiral HPLC
Assay type in all cases: biochemical, Agromyces mediolanus
Conditions in all cases: phosphate buffer 0.2 M, pH 8.0, 30 °C (general activity assay), enantiopure substrate
c1ccc(COC[C@H]2CO2)cc1 = tested on: T1, c1ccc(COC[C@H]2CO2)cc1
T1 construct: synthetic gene, triple variant, C-terminal His6 (3' end of gene) in pET28a NcoI/XhoI, E. coli BL21(DE3), Ni-NTA purified, about 43 kDa
Text: (§1) initial rate of epoxide hydrolysis, chiral HPLC on vEH-Am

c1ccc([C@H]2CO2)cc1 = tested on: T2, c1ccc([C@H]2CO2)cc1
T2 construct: synthetic gene, triple variant, C-terminal His6 (3' end of gene) in pET28a NcoI/XhoI, E. coli BL21(DE3), Ni-NTA purified, about 43 kDa
Text: as §1

c1ccc(COC[C@@H]2CO2)cc1 = tested on: T3, c1ccc(COC[C@@H]2CO2)cc1
T3 construct: synthetic gene, triple variant, C-terminal His6 (3' end of gene) in pET28a NcoI/XhoI, E. coli BL21(DE3), Ni-NTA purified, about 43 kDa
Text: as §1

c1ccc([C@@H]2CO2)cc1 = tested on: T4, c1ccc([C@@H]2CO2)cc1
T4 construct: synthetic gene, triple variant, C-terminal His6 (3' end of gene) in pET28a NcoI/XhoI, E. coli BL21(DE3), Ni-NTA purified, about 43 kDa
Text: as §1

## vEH-Am (Agromyces mediolanus; N240D/S207V/W182F)
c1ccc(COC[C@H]2CO2)cc1
  Km: 9.3 mM
c1ccc([C@H]2CO2)cc1
  Km: 0.9 mM
c1ccc(COC[C@@H]2CO2)cc1
  Km: 36.5 mM
c1ccc([C@@H]2CO2)cc1
  Km: 5.2 mM
